Reference: the supplement of paper PMC10567573

B1: S100A14 (parent)
chain: KIANLGSCNDSKLEFRSFWELIGE

Variants of: B1
Assay: protein stability index of a GFP-peptide fusion (GPS, HEK-293T) (PSI 1-6); higher = more stable
Conditions: c terminus: a fixed tail appended
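Also: lentivirally expressed fusions sorted by FACS into six bins by GFP to DsRed ratio, PSI derived from sequencing read proportions per bin multiplied by bin number.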

| Variant | protein stability index |
| --- | --- |
| KIANGGSCNDSKLEFRSFWELIGE [L5G] | 1.72 |
| KIANVGSCNDSKLEFRSFWELIGE [L5V] | 2.09 |
| KIANHGSCNDSKLEFRSFWELIGE [L5H] | 1.88 |
| KIANFGSCNDSKLEFRSFWELIGE [L5F] | 2.03 |
| KIANCGSCNDSKLEFRSFWELIGE [L5C] | 2.27 |
| KIANQGSCNDSKLEFRSFWELIGE [L5Q] | 2.17 |
| KIANTGSCNDSKLEFRSFWELIGE [L5T] | 1.62 |
| KIANDGSCNDSKLEFRSFWELIGE [L5D] | 2.67 |
| KIANAGSCNDSKLEFRSFWELIGE [L5A] | 1.89 |
| KIANIGSCNDSKLEFRSFWELIGE [L5I] | 1.41 |
| KIANKGSCNDSKLEFRSFWELIGE [L5K] | 2.89 |
| KIANPGSCNDSKLEFRSFWELIGE [L5P] | 2.08 |
| KIANYGSCNDSKLEFRSFWELIGE [L5Y] | 1.53 |
| KIANSGSCNDSKLEFRSFWELIGE [L5S] | 2.29 |
| KIANNGSCNDSKLEFRSFWELIGE [L5N] | 2.44 |
| KIANEGSCNDSKLEFRSFWELIGE [L5E] | 2.74 |
| KIANRGSCNDSKLEFRSFWELIGE [L5R] | 2.25 |
| KIANMGSCNDSKLEFRSFWELIGE [L5M] | 1.85 |
| KISNLGSCNDSKLEFRSFWELIGE [A3S] | 1.66 |
| KIGNLGSCNDSKLEFRSFWELIGE [A3G] | 2.48 |
| KITNLGSCNDSKLEFRSFWELIGE [A3T] | 1.65 |
| KINNLGSCNDSKLEFRSFWELIGE [A3N] | 1.54 |
| KIQNLGSCNDSKLEFRSFWELIGE [A3Q] | 1.98 |
| KIFNLGSCNDSKLEFRSFWELIGE [A3F] | 3.12 |

| Variant | protein stability index |
| --- | --- |
| KIDNLGSCNDSKLEFRSFWELIGE [A3D] | 1.97 |
| KIRNLGSCNDSKLEFRSFWELIGE [A3R] | 1.33 |
| KIENLGSCNDSKLEFRSFWELIGE [A3E] | 1.95 |
| KIYNLGSCNDSKLEFRSFWELIGE [A3Y] | 1.79 |
| KIPNLGSCNDSKLEFRSFWELIGE [A3P] | 1.23 |
| KILNLGSCNDSKLEFRSFWELIGE [A3L] | 1.09 |
| KICNLGSCNDSKLEFRSFWELIGE [A3C] | 1.62 |
| KIVNLGSCNDSKLEFRSFWELIGE [A3V] | 2.78 |
| KIKNLGSCNDSKLEFRSFWELIGE [A3K] | 1.53 |
| KIHNLGSCNDSKLEFRSFWELIGE [A3H] | 2.38 |
| KIINLGSCNDSKLEFRSFWELIGE [A3I] | 1.74 |
| KIWNLGSCNDSKLEFRSFWELIGE [A3W] | 2.28 |
| KIMNLGSCNDSKLEFRSFWELIGE [A3M] | 2.69 |
| KIANLGDCNDSKLEFRSFWELIGE [S7D] | 1.96 |
| KIANLGCCNDSKLEFRSFWELIGE [S7C] | 2.09 |
| KIANLGACNDSKLEFRSFWELIGE [S7A] | 1.51 |
| KIATLGSCNDSKLEFRSFWELIGE [N4T] | 1.7 |
| KIAMLGSCNDSKLEFRSFWELIGE [N4M] | 1.64 |
| KIAPLGSCNDSKLEFRSFWELIGE [N4P] | 1.83 |
| KIAALGSCNDSKLEFRSFWELIGE [N4A] | 2.01 |
| KIAWLGSCNDSKLEFRSFWELIGE [N4W] | 2.55 |
| KIAFLGSCNDSKLEFRSFWELIGE [N4F] | 2.7 |
| KIAVLGSCNDSKLEFRSFWELIGE [N4V] | 1.98 |
| KIASLGSCNDSKLEFRSFWELIGE [N4S] | 2 |

| Variant | protein stability index |
| --- | --- |
| KIAHLGSCNDSKLEFRSFWELIGE [N4H] | 2.71 |
| KIACLGSCNDSKLEFRSFWELIGE [N4C] | 1.75 |
| KIALLGSCNDSKLEFRSFWELIGE [N4L] | 1.67 |
| KIAELGSCNDSKLEFRSFWELIGE [N4E] | 1.68 |
| KIAILGSCNDSKLEFRSFWELIGE [N4I] | 1.9 |
| KIAQLGSCNDSKLEFRSFWELIGE [N4Q] | 1.72 |
| KIAYLGSCNDSKLEFRSFWELIGE [N4Y] | 2.32 |
| KIAKLGSCNDSKLEFRSFWELIGE [N4K] | 3.15 |
| KIADLGSCNDSKLEFRSFWELIGE [N4D] | 1.73 |
| KIARLGSCNDSKLEFRSFWELIGE [N4R] | 1.07 |
| KIAGLGSCNDSKLEFRSFWELIGE [N4G] | 2.83 |
| KIANLNSCNDSKLEFRSFWELIGE [G6N] | 2.94 |
| KIANLHSCNDSKLEFRSFWELIGE [G6H] | 1.5 |
| KIANLKSCNDSKLEFRSFWELIGE [G6K] | 3.01 |
| KIANLLSCNDSKLEFRSFWELIGE [G6L] | 3.46 |
| KIANLESCNDSKLEFRSFWELIGE [G6E] | 2.06 |
| KIANLYSCNDSKLEFRSFWELIGE [G6Y] | 1.85 |
| KIANLSSCNDSKLEFRSFWELIGE [G6S] | 2.1 |
| KIANLISCNDSKLEFRSFWELIGE [G6I] | 1.75 |
| KIANLWSCNDSKLEFRSFWELIGE [G6W] | 2.21 |
| KIANLQSCNDSKLEFRSFWELIGE [G6Q] | 1.95 |
| KIANLPSCNDSKLEFRSFWELIGE [G6P] | 1.67 |
| KIANLMSCNDSKLEFRSFWELIGE [G6M] | 2.51 |
| KIANLRSCNDSKLEFRSFWELIGE [G6R] | 1.92 |

| Variant | protein stability index |
| --- | --- |
| KIANLTSCNDSKLEFRSFWELIGE [G6T] | 1.63 |
| KIANLVSCNDSKLEFRSFWELIGE [G6V] | 2.51 |
| KIANLCSCNDSKLEFRSFWELIGE [G6C] | 2.45 |
| KIANLDSCNDSKLEFRSFWELIGE [G6D] | 1.61 |
| KIANLASCNDSKLEFRSFWELIGE [G6A] | 2.11 |
| TIANLGSCNDSKLEFRSFWELIGE [K1T] | 2.13 |
| GIANLGSCNDSKLEFRSFWELIGE [K1G] | 2.04 |
| MIANLGSCNDSKLEFRSFWELIGE [K1M] | 1.59 |
| IIANLGSCNDSKLEFRSFWELIGE [K1I] | 1.79 |
| EIANLGSCNDSKLEFRSFWELIGE [K1E] | 1.84 |
| SIANLGSCNDSKLEFRSFWELIGE [K1S] | 2.19 |
| NIANLGSCNDSKLEFRSFWELIGE [K1N] | 1.41 |
| PIANLGSCNDSKLEFRSFWELIGE [K1P] | 1.95 |
| FIANLGSCNDSKLEFRSFWELIGE [K1F] | 2.99 |
| WIANLGSCNDSKLEFRSFWELIGE [K1W] | 3.31 |
| RIANLGSCNDSKLEFRSFWELIGE [K1R] | 1.59 |
| HIANLGSCNDSKLEFRSFWELIGE [K1H] | 1.61 |
| QIANLGSCNDSKLEFRSFWELIGE [K1Q] | 2.02 |
| AIANLGSCNDSKLEFRSFWELIGE [K1A] | 1.98 |
| LIANLGSCNDSKLEFRSFWELIGE [K1L] | 1.15 |
| CIANLGSCNDSKLEFRSFWELIGE [K1C] | 1.92 |
| DIANLGSCNDSKLEFRSFWELIGE [K1D] | 1.86 |
